These results are taken from PMC6929975, “A supramolecular protein chaperone for vaccine delivery” (Theranostics, 2020).

The experiment deals with bone marrow-derived dendritic cells (BMDCs). Nature of the experiment: Antigen uptake by BMDCs (confocal microscopy; OVA-Rhod). The format is cell-based. The note with it: 1 h, 37 °C, OVA-Rhod 2.5 µg mL^-1 (soluble) or Comp./OVA = 10:1 w/w. The procedure: Figure 5 Vaccine promoting antigen uptake by BMDCs. […] Magnification: 63 ×. (B) The percentage of OVA-Rhod-positive cells is shown. (C) Total fluorescence intensity of OVA-Rhod was measured; total fluorescence intensity (FI) = % of positive cells × mean fluorescence intensity. The bars shown represent the mean ± SE, and differences among groups were determined using one-way ANOVA. The asterisks indicate the significance of differences between the Vac-1 group and the indicated group. *: p < 0.05, **: p < 0.01.

B1: RBITC-OVA: OVA labelled with Rhodamine b isothiocyanate, soluble (protein, UniProt P01012 2-386, looked up)
Ovalbumin: GSIGAASMEFCFDVFKELKVHHANENIFYCPIAIMSALAMVYLGAKDSTRTQINKVVRFDKLPGFGDSIEAQCGTSVNVHSSLRDILNQITKPNDVYSFSLASRLYAEERYPILPEYLQCVKELYRGGLEPINFQTAADQARELINSWVESQTNGIIRNVLQPSSVDSQTAMVLVNAIVFKGLWEKAFKDEDTQAMPFRVTEQESKPVQMMYQIGLFRVASMASEKMKILELPFASGTMSMLVLLPDEVSGLEQLESIINFEKLTEWTSSNVMEERKIKVYLPRMKMEEKYNLTSVLMAMGITDVFSSSANLSGISSAESLKISQAVHAAHAEINEAGREVVGSAEAGVDAASVSEEFRADHPFLFCIKHIATNAVLFFGRCVSP
modifications: rhodamine B isothiocyanate label
notes: OVA labelled with Rhodamine b isothiocyanate, soluble
For B1, the “uptake of RBITC-OVA by DCs” value is on record as “poor uptake”.
